# Measured values taken from patent US20220195071A1 (TORQUE THERAPEUTICS, published 2022).
# Biological target: T1, mouse CD8 (mouse, UniProt P01731 28-247; P10300 22-213)
# T1 construct: whole, on cells
# Assay: flow cytometry of blood 1 hr after i.v. injection (2 µg/mouse); kappa+ IL-15+ cells
# T1 sequence (P01731 28-247, chain 1 of 2): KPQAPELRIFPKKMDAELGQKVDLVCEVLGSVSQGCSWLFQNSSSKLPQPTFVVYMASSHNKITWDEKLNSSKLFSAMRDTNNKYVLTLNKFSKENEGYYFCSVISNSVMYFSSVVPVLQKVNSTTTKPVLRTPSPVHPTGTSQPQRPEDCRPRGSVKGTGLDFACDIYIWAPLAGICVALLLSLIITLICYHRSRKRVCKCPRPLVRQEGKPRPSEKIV
# T1 sequence (P10300 22-213, chain 2 of 2): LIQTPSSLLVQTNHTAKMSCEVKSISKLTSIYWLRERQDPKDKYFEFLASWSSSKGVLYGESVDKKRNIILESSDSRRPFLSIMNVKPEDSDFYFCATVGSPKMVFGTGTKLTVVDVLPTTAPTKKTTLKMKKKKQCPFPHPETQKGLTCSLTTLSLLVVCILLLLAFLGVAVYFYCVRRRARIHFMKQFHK
binder,measurement,value
chY169Fab-M1scFv-IL15/sushi (bispecific antibody) chain 1: EVKLQESGGGLVQPGRSLKLSCAASGFNFNDYWMGWVRQAPGKGLEWIGEINKDSSTINYTPSLKDKFTISRDNAQNTLYLQMSKLGSEDTAIYYCARARGMMVLIIPHYFDYWGQGVMVTVSSASTKGPSVFPLAPSSKSTSGGTAALGCLVKDYFPEPVTVSWNSGALTSGVHTFPAVLQSSGLYSLSSVVTVPSSSLGTQTYICNVNHKPSNTKVDKKVEPKSCGGGGSGGGGSGGGGSQVNLLQSGAALVKPGASVKLSCKASGYTFTDYYIHWVKQSHGKSLEWVAYINPDRDYTNYNEKFKSKATLTVDKSTNTAYMELSRLTSEDSATFYCTRRLYDGAYYYSWFAYWGQGTLVTVSSGGGGSGGGGSGGGGSGGGGSDIQMTQSPHSLSASLGETVSIECLASEGISNYLAWYQQKPGKSPQLLIYYGSRLQDGVPSRFSGSGSGTQYSLRITNMQPEDEGVYYCQQGYKYPYTFGAGTKLELK chain 2: not shown chain 3: ITCPPPMSVEHADIWVKSYSLYSRERYICNSGFKRKAGTSSLTECVLNKATNVAHWTTPSLKCIR,fold higher concentration of circulating tethered-fusion positive cells against vehicle control and chM1Fab-IL15/sushi,> 10 fold
